Measurements taken from publication PMC11826995 (2025).

Assays:
HSPB6 phosphopeptide = molecular target: T1, HSPB6 phosphopeptide (Homo sapiens, UniProt O14558); assay: fluorescence anisotropy
T1 chain: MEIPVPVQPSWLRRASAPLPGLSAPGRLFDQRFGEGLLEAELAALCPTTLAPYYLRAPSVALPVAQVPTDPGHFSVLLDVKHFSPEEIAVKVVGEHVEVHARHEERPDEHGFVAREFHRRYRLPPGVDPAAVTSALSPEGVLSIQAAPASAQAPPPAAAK

[1] = molecular target: MED1 DRIP-2 coregulator peptide (Homo sapiens, UniProt Q15648); assay: anisotropy
[2] = molecular target: EP300 coregulator peptide (Homo sapiens, UniProt Q09472); assay: fluorescence anisotropy
EP300 coregulator peptide, sequence (Q09472 2-2414): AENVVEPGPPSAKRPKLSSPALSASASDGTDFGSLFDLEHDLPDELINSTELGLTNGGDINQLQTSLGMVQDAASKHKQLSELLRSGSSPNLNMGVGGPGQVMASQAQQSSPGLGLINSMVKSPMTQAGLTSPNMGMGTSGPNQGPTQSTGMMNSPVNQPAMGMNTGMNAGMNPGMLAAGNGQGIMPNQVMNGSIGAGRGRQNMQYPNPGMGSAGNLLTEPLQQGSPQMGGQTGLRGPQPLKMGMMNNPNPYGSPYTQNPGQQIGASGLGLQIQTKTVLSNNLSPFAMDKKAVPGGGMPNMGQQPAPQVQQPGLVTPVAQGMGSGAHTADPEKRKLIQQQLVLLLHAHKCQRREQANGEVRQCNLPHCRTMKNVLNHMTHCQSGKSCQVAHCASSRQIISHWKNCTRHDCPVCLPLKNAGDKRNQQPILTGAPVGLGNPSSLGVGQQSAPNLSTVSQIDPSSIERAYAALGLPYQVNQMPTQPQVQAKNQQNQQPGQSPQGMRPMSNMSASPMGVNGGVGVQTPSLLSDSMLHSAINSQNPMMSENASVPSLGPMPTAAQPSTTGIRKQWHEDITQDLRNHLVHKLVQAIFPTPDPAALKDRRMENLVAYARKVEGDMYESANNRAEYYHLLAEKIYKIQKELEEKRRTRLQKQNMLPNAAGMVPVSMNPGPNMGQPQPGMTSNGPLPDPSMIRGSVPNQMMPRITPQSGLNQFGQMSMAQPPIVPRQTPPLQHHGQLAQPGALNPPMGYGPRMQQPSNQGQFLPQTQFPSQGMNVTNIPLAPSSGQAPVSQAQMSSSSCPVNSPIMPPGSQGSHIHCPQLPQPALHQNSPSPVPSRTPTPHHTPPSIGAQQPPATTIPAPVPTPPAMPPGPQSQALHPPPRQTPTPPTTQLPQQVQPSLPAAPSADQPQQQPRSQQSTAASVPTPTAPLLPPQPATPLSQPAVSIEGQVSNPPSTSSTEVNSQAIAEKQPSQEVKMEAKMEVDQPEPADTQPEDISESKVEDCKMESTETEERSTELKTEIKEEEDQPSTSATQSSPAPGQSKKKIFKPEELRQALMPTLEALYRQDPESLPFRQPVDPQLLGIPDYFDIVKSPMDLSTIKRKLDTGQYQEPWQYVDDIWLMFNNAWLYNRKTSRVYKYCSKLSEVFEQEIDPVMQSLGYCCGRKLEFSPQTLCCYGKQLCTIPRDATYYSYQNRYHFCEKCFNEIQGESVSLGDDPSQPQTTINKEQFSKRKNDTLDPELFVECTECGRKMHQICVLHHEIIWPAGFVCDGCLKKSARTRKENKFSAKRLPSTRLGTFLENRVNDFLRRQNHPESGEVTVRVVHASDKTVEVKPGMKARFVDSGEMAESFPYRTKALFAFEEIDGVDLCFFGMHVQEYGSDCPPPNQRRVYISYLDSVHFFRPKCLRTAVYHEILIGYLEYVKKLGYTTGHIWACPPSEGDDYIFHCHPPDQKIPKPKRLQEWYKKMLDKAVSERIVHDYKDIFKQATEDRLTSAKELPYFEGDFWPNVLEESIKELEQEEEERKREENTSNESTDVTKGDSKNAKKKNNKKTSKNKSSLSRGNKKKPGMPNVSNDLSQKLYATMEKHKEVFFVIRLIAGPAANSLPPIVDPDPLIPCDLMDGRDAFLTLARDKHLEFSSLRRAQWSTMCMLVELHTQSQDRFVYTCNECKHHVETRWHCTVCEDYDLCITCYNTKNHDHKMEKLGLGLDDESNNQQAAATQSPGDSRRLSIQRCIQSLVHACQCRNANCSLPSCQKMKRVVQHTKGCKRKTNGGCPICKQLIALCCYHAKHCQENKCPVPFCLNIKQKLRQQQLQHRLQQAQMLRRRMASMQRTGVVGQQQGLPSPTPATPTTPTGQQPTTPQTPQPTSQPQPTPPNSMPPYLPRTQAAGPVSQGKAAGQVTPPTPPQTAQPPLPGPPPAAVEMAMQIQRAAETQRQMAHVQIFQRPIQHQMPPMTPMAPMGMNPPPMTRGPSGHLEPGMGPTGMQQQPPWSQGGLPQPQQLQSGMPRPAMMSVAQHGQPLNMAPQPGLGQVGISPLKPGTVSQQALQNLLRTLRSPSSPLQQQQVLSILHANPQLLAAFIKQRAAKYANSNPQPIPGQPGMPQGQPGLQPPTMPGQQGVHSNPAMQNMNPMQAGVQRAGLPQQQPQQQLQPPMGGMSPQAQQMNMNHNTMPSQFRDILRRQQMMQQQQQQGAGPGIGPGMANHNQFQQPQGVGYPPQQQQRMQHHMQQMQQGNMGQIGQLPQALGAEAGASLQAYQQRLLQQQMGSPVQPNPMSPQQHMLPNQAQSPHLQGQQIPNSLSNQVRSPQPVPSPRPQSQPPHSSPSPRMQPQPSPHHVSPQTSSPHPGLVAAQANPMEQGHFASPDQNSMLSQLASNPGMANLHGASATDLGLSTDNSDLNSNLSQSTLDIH

MED1 DRIP-2 coregulator peptide, sequence (Q15648 whole entry): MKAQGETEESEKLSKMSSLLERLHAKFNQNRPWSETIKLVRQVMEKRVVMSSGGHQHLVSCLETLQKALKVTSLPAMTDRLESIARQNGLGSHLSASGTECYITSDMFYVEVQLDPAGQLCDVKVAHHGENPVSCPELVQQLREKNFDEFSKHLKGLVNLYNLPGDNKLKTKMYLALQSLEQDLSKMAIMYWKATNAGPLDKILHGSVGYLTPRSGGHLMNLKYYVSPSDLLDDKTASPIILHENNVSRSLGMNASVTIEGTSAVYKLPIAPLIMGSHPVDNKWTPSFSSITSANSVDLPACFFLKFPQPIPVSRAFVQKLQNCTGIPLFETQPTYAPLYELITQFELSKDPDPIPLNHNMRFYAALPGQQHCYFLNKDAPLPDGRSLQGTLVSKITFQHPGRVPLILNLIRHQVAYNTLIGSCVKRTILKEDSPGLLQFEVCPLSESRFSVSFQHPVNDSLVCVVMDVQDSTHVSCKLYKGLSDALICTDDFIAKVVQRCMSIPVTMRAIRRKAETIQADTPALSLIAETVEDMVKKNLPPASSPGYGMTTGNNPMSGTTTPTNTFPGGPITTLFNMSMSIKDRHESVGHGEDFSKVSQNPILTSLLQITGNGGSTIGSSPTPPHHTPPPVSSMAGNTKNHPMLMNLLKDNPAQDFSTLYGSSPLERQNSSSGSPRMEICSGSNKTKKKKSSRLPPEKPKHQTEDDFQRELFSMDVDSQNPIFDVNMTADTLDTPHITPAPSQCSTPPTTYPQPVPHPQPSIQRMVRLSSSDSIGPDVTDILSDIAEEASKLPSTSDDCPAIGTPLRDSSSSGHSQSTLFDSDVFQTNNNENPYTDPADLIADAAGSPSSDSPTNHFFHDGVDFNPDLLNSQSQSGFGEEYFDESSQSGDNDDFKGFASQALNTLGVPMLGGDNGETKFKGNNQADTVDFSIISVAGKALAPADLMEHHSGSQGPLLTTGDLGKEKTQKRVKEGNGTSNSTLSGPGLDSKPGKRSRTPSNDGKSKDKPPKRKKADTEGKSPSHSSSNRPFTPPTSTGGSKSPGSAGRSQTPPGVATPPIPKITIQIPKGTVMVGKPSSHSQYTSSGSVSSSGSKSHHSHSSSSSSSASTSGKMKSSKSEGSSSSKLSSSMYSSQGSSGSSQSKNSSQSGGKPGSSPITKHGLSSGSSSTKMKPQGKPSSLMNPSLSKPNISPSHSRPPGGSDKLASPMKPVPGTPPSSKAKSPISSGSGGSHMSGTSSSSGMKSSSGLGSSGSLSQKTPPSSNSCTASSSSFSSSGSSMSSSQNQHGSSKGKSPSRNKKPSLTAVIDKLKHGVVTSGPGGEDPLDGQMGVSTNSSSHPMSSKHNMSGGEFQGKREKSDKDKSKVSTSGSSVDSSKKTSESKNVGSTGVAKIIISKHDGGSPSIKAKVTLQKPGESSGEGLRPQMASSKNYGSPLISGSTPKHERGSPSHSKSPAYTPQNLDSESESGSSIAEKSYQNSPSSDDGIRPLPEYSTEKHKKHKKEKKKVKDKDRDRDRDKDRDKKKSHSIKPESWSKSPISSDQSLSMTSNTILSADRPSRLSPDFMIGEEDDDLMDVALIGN

B1: 14-3-3σ (protein)
chain: MERASLIQKAKLAEQAERYEDMAAFMKGAVEKGEELSCEERNLLSVAYKNVVGGQRAAWRVLSSIEQKSNEEGSEEKGPEVREYREKVETELQGVCDTVLGLLDSHLIKEAGDAESRVFYLKMKGDYYRYLAEVATGDDKKRIIDSARSAYQEAMDISKKEMPPTNPIRLGLALNFSVFHYEIANSPEEAISLAKTTFDEAMADLHTLSEDSYKDSTLIMQLLRDNLTLWTADNAGEEGGEAPQEPQS
modifications: phosphorylated HSPB6 peptide
HSPB6 phosphopeptide
  Kd: 990 nM

B2: PPARγ (protein)
chain: MGETLGDSPIDPESDSFTDTLSANISQEMTMVDTEMPFWPTNFGISSVDLSVMEDHSHSFDIKPFTTVDFSSISTPHYEDIPFTRTDPVVADYKYDLKLQEYQSAIKVEPASPPYYSEKTQLYNKPHEEPSNSLMAIECRVCGDKASGFHYGVHACEGCKGFFRRTIRLKLIYDRCDLNCRIHKKSRNKCQYCRFQKCLAVGMSHNAIRFGRMPQAEKEKLLAEISSDIDQLNPESADLRALAKHLYDSYIKSFPLTKAKARAILTGKTTDKSPFVIYDMNSLMMGEDKIKFKHITPLQEQSKEVAIRIFQGCQFRSVEAVQEITEYAKSIPGFVNLDLNDQVTLLKYGVHEIIYTMLASLMNKDGVLISEGQGFMTREFLKSLRKPFGDFMEPKFEFAVKFNALELDDSDLAIFIAVIILSGDRPGLLNVKPIEDIQDNLLQALELQLKLNHPESSQLFAKLLQKMTDLRQIVTEHVQLLQVIKKTETDMSLHPLLQEIYKDLY
[1]
  Kd: 647 nM
[2]
  Kd: > 10 µM
